Experimental data reported in paper PMC9769368.

Biological target: AAVGo.1 virus-like particles (goat adeno-associated virus capsid, without DNA genome) (goat adeno-associated virus AAVGo.1)
Assay: ELISA; direct ELISA in duplicate; AAV VLPs (2.5 ug/mL) coated on plates in 100 mM NaHCO3 pH 9.6, washed with TBST; N-terminally His-tagged AAVR fragment added, detected with anti-6x His HRP antibody; OD 450 nm; EC50 by nonlinear regression (avidity)

Substance	fold stronger binding avidity than AAV5 [fold]
His6PKD12, fragment of human AAV receptor (AAVR) with PKD domains 1 and 2 (domain or fragment)	2
His6PKD1, fragment of human AAV receptor (AAVR) with PKD domain 1 (domain or fragment)	3
